Assays:
full length human DLL4 [1] = target: T1, full length human DLL4 (human, UniProt Q9NR61 27-685); assay: FACS binding, HEK293 cells with human DLL4
T1 construct: whole, on cells; also called native DLL4 expressed in HEK293 cells
Procedure: (§1) The activity of the mutated antibodies was assessed in two ways: firstly, the ability of the antibodies to block the binding of soluble Notch1/Fc to full length human DLL4 stably expressed in HEK293 cells as described in Example 3 was determined and, secondly, the binding of the antibodies to the same cell line used in the receptor-ligand competition studies was determined. For the binding studies, HEK293 cells stably overexpressing human DLL4 were resuspended in PBS containing 2% FCS at a concentration of 50,000 cells/well and incubated with titrations of antibody (final concentrations 0.01-10 μg/ml) for 1 h at 4° C. The cells were then washed and incubated with 0.31 μg/ml anti-human IgG-Fc-FITC (BD Pharmingen, cat#555786) for 30 minutes at 4° C. Bound […] was detected using FACS analysis. Results of these studies are summarized in Table 23, which show the effects of specific mutations to sequences of 9G8 and 2H10 on the ability of the antibodies to compete with Notch1 for binding to human DLL4 or to bind to human DLL4 relative to unmutated antibodies.

full length human DLL4 [2] = target: T1, full length human DLL4; assay: FACS competition vs Notch1/Fc, HEK293 cells with human DLL4
Procedure: (§2) Further experiments were performed on selected antibodies using HEK293 cells that were stably transfected with either human, mouse or cynomolgus monkey DLL4 using retroviral constructs. In these experiments, anti-DLL4 antibodies (final concentration: 10-0.01 μg/ml) diluted in PBS containing 2% FCS were added to DLL4-expressing HEK 293 cells (50000 cells/well diluted in PBS containing 2% FCS) and incubated for 1 h at 4° C. Subsequently, Alexa-647 labeled human, rat or APC labeled mouse Notch1/Fc (e.g. R&D Systems, catalog #3647-TK-050, 1057-TK-050, 5267-TK-050, respectively) was added at a final concentration of 0.01-0.5 μg/ml and plates were incubated for a further 2 h at 4° C. prior to washing and reading on a FACSCalibur instrument.
as §1

full length human DLL4 [3] = target: T1, full length human DLL4; assay: FACS titration, HEK293 cells with human DLL4
Procedure: The binding affinities of the purified antibodies for DLL4 was estimated using is both FACS and BIAcore techniques. […] The cells were then washed and incubated with goat anti-human IgG-Fc-Cy5+5 μg/mL 7-Amino-Actinomycin (7AAD) for 30 minutes at 4° C.
In this equation, F=mean fluorescence, LT=total molecular mAb concentration, P′=proportionality constant that relates arbitrary fluorescence units to bound mAb, M=cellular concentration in molarity, n=number of receptors per cell, B=background signal, and KD=equilibrium dissociation constant. For each mAb titration curve an estimate for KD is obtained as P′, n, B, and KD are allowed to float freely in the nonlinear analysis. Table 20 summarizes the affinity estimates for the anti-DLL4 antibodies for human and cynomolgus monkey DLL4 derived using the methodology described above

full length human DLL4 [4] = target: T1, full length human DLL4; assay: FACS competition vs human Notch1/Fc, HEK293 cells with human DLL4
Procedure: as §2

[5] = target: T2, human soluble DLL4 (R&D systems catalog #1056-D4-050) (human, UniProt Q9NR61 27-524); assay: Biacore T100, antibody immobilised, soluble human DLL4 as analyte
T2 construct: Catalog number as printed; perhaps the same product as #1506-D4; also called antigen DLL4
T2 sequence (Q9NR61 27-524 limits assumed): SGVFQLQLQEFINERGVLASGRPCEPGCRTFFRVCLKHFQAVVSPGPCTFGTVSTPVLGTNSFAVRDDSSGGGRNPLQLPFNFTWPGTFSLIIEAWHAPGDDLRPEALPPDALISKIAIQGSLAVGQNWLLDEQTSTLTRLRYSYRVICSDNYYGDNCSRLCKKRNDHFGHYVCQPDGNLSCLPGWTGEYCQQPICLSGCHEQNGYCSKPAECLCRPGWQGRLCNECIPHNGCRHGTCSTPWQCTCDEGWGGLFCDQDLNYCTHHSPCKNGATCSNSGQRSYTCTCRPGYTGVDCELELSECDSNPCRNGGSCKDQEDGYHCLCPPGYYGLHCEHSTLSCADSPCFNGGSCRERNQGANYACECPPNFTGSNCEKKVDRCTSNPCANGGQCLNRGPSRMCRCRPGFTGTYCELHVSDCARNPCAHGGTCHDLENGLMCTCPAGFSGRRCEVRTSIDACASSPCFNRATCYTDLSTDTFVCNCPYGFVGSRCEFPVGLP
Procedure: For Biacore analysis, each purified anti-DLL4 antibody was immobilized on a CM5 sensor chip within a T100 using standard amine coupling. Immobilization levels were kept below 200 RU. The concentration of DLL4 was determined by UV-VIS spectroscopy using a molar absorptivity at 280 nm of 110, 440 M⁻¹cm⁻¹, which was calculated from the sequence of the protein using a method developed by Pace et al. (G. R. Grimsley and C. N. Pace (2003) in Current Protocols in Protein Science (John Wiley & Sons, Inc.), 3.1.1-3.1.9). The antigen DLL4 (R&D systems; human catalog #1056-D4-050 or mouse, catalog #1389-D4-050) was diluted to a starting concentration of 32-64 nM and tested in a 3-fold dilution series in triplicate. The running buffer contained HBS-P with 0.1 mg/ml BSA and binding responses were collected at 23° C. Bound complexes were regenerated with a 15 s pulse of 10 mM of sodium hydroxide. The response data were globally fitted with a simple 1:1 interaction model and Table 20 summarizes the kₐ, kd and KD estimates obtained for the anti-DLL4 antibodies when binding to human soluble DLL4 was assessed.

T1 sequence (Q9NR61 27-685): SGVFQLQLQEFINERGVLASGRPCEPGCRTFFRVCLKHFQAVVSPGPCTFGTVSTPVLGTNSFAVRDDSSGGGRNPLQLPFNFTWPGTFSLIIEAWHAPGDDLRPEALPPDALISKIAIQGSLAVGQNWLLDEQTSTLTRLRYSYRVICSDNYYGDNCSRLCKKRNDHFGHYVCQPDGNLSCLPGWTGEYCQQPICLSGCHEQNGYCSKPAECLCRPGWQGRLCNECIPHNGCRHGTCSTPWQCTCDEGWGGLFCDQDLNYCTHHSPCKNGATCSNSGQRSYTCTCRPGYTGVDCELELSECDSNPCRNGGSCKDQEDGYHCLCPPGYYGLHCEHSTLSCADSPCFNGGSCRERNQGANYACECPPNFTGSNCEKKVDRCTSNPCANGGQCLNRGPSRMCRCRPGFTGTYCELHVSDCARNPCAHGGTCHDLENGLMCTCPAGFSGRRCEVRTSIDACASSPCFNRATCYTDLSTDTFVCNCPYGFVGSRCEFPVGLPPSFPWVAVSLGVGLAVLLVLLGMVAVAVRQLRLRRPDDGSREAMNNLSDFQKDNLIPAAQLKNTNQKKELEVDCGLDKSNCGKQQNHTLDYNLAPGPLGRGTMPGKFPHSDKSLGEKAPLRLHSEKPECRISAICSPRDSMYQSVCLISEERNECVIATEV

| Binder | EC50 (full length human DLL4 [1]) | IC50 (full length human DLL4 [2]) | Kd (full length human DLL4 [3]) | IC50 (full length human DLL4 [4]) | Kd [5] | koff [5] | kon [5] |
| --- | --- | --- | --- | --- | --- | --- | --- |
| 2H10 IgG2 VH wt/VL wt (antibody, V domains shown, IgG2, transiently expressed) VH: QVQLVESGGGVVQPGRSLRLSCAASGFTFSRHGMHWVRQAPGKGLEWVAVVWFDGSNIYYADSVKGRFTISRDNSKNTLYLQMNSLRAEDTAMYYCARDSRIAAADYWGQGTLVTVSS VL: SYELTQPPSVSVSPGQTVSITCSGDKLGDKYVCWYQQKPGQSPVLVIYQESKRPSGIPERFSGSSSGNTATLTISGTQAMDEADYYCQTWDSSLVVFGGGTKLTVL | 0.043 µg/mL | 0.224 µg/mL |  |  |  |  |  |
| 9G8 IgG2 VH wt/VL wt (antibody, V domains shown, IgG2, transiently expressed) VH: QLQLQESGPGLVKPSETLSLSCTVSGGSISSSSSYWGLIRQPPGKGLEWIGSIYYSGSTYYSPSLKSRVSISVDTSKNQFSLKLSSVTAADTAVYFCARQGYGGHPDVFDIWGQGTMVTVSS VL: SSELTQSPSVSVSPGQTARITCSGDKLGDVYVCWYQQKTGQSPVLVIYEDTKRPSGIPERFSGSNSGNTATLTISGTQVMDEADYYCQAWDSTTAVIFGGGTKLTVL | 0.071 µg/mL | 0.17 µg/mL |  |  |  |  |  |
| 9G8 IgG2 VH L38W/VL wt (antibody, V domains shown, IgG2) VH: QLQLQESGPGLVKPSETLSLSCTVSGGSISSSSSYWGWIRQPPGKGLEWIGSIYYSGSTYYSPSLKSRVSISVDTSKNQFSLKLSSVTAADTAVYFCARQGYGGHPDVFDIWGQGTMVTVSS VL: SSELTQSPSVSVSPGQTARITCSGDKLGDVYVCWYQQKTGQSPVLVIYEDTKRPSGIPERFSGSNSGNTATLTISGTQVMDEADYYCQAWDSTTAVIFGGGTKLTVL | 0.07 µg/mL | 0.133 µg/mL |  |  |  |  |  |
| 9G8 IgG2 VH wt/VL V79A (antibody, V domains shown, IgG2) VH: QLQLQESGPGLVKPSETLSLSCTVSGGSISSSSSYWGLIRQPPGKGLEWIGSIYYSGSTYYSPSLKSRVSISVDTSKNQFSLKLSSVTAADTAVYFCARQGYGGHPDVFDIWGQGTMVTVSS VL: SSELTQSPSVSVSPGQTARITCSGDKLGDVYVCWYQQKTGQSPVLVIYEDTKRPSGIPERFSGSNSGNTATLTISGTQAMDEADYYCQAWDSTTAVIFGGGTKLTVL | 0.095 µg/mL | 0.211 µg/mL |  |  |  |  |  |
| 9G8 IgG2 VH wt/VL C33S (antibody, V domains shown, IgG2) VH: QLQLQESGPGLVKPSETLSLSCTVSGGSISSSSSYWGLIRQPPGKGLEWIGSIYYSGSTYYSPSLKSRVSISVDTSKNQFSLKLSSVTAADTAVYFCARQGYGGHPDVFDIWGQGTMVTVSS VL: SSELTQSPSVSVSPGQTARITCSGDKLGDVYVSWYQQKTGQSPVLVIYEDTKRPSGIPERFSGSNSGNTATLTISGTQVMDEADYYCQAWDSTTAVIFGGGTKLTVL | 0.067 µg/mL | 0.136 µg/mL |  |  |  |  |  |
| 4B4 IgG2 (antibody, V domains shown, Formatted as IgG2) VH: QVLLIQSGAEVKKPGASVQVSCKASGYTFTNYGVIWVRQAPGQGLEYMGWISAYNGNTNYAQKLQDRVTMTSDTSTTTAYMELRSLRSDDTAVYYCARELGSSFDYWGQGTLVTVSS VL: SYELTQPPSVSVSPGQTARITCSGDALPKKYAYWYQQKSGQAPVLVIYEDIKRPSGIPERFSGSSSGTMATLTISGAQVEDEADYYCFSTDNSGDHSVFGGGTKLTVL |  |  | 0.232 nM | 1.19 nM | 0.336 nM | 3.6e-05 s⁻¹ | 107000 M⁻¹ s⁻¹ |

Continued, values first:

| EC50 (full length human DLL4 [1]) | IC50 (full length human DLL4 [2]) | Kd (full length human DLL4 [3]) | IC50 (full length human DLL4 [4]) | Kd [5] | koff [5] | kon [5] | Binder |
| --- | --- | --- | --- | --- | --- | --- | --- |
| 0.031 µg/mL | 0.084 µg/mL |  |  |  |  |  | 2H10 IgG2 VH wt/VL C33S (antibody, V domains shown, IgG2) VH: QVQLVESGGGVVQPGRSLRLSCAASGFTFSRHGMHWVRQAPGKGLEWVAVVWFDGSNIYYADSVKGRFTISRDNSKNTLYLQMNSLRAEDTAMYYCARDSRIAAADYWGQGTLVTVSS VL: SYELTQPPSVSVSPGQTVSITCSGDKLGDKYVSWYQQKPGQSPVLVIYQESKRPSGIPERFSGSSSGNTATLTISGTQAMDEADYYCQTWDSSLVVFGGGTKLTVL |
|  |  | 0.103 nM | 0.57 nM | 0.594 nM | 0.000171 s⁻¹ | 288000 M⁻¹ s⁻¹ | 21H3 IgG1 (antibody, V domains shown, Formatted as IgG1) VH: QVQLVQSGAEVKKPGASVKVSCKASGYTFTNYGITWVRQAPGQGPEWMGWISAYNGNTNYAQKLQDRVTVTTDTSTSTAYMELRSLRSDDTAVYYCARDRVPRIPVTTEAFDIWGQGTMVTVSS VL: QSVLTQPPSASGTPGQRVTISCSGSSSNIGSYFVYWYQQLPGTAPKLLIYRNNQRPSGVPDRFSGSESGTSASLAISGLRSEDEADYYCAAWDDSLSGHWVFGGGTRLTVL |
| 0.051 µg/mL | 0.107 µg/mL |  |  |  |  |  | 9G8 IgG2 VH L38W/VL C33S (antibody, V domains shown, IgG2) VH: QLQLQESGPGLVKPSETLSLSCTVSGGSISSSSSYWGWIRQPPGKGLEWIGSIYYSGSTYYSPSLKSRVSISVDTSKNQFSLKLSSVTAADTAVYFCARQGYGGHPDVFDIWGQGTMVTVSS VL: SSELTQSPSVSVSPGQTARITCSGDKLGDVYVSWYQQKTGQSPVLVIYEDTKRPSGIPERFSGSNSGNTATLTISGTQVMDEADYYCQAWDSTTAVIFGGGTKLTVL |
| 0.082 µg/mL | 0.181 µg/mL |  |  |  |  |  | 9G8 IgG2 VH wt/VL S7P (antibody, V domains shown, IgG2) VH: QLQLQESGPGLVKPSETLSLSCTVSGGSISSSSSYWGLIRQPPGKGLEWIGSIYYSGSTYYSPSLKSRVSISVDTSKNQFSLKLSSVTAADTAVYFCARQGYGGHPDVFDIWGQGTMVTVSS VL: SSELTQPPSVSVSPGQTARITCSGDKLGDVYVCWYQQKTGQSPVLVIYEDTKRPSGIPERFSGSNSGNTATLTISGTQVMDEADYYCQAWDSTTAVIFGGGTKLTVL |
| 0.074 µg/mL | 0.155 µg/mL |  |  |  |  |  | 9G8 IgG2 VH L38W/VL S7P (antibody, V domains shown, IgG2) VH: QLQLQESGPGLVKPSETLSLSCTVSGGSISSSSSYWGWIRQPPGKGLEWIGSIYYSGSTYYSPSLKSRVSISVDTSKNQFSLKLSSVTAADTAVYFCARQGYGGHPDVFDIWGQGTMVTVSS VL: SSELTQPPSVSVSPGQTARITCSGDKLGDVYVCWYQQKTGQSPVLVIYEDTKRPSGIPERFSGSNSGNTATLTISGTQVMDEADYYCQAWDSTTAVIFGGGTKLTVL |
|  |  | 0.157 nM | 0.85 nM | 0.17 nM | 2.01e-05 s⁻¹ | 118000 M⁻¹ s⁻¹ | 4B4 IgG1 (antibody, V domains shown, Formatted as IgG1) VH: QVLLIQSGAEVKKPGASVQVSCKASGYTFTNYGVIWVRQAPGQGLEYMGWISAYNGNTNYAQKLQDRVTMTSDTSTTTAYMELRSLRSDDTAVYYCARELGSSFDYWGQGTLVTVSS VL: SYELTQPPSVSVSPGQTARITCSGDALPKKYAYWYQQKSGQAPVLVIYEDIKRPSGIPERFSGSSSGTMATLTISGAQVEDEADYYCFSTDNSGDHSVFGGGTKLTVL |

Reference: patent US20100196385A1 (AstraZeneca / MedImmune, published 2010)
